# Patent publication US5668107A, “Compositions and methods for inhibiting elastase” (The UAB Research Foundation, priority 1995, dated 1997)
# Where no end group is shown, it is not given here.
# T1: HNE (human neutrophil elastase) (Homo sapiens, UniProt P08246)
# T1 sequence (P08246 30-267): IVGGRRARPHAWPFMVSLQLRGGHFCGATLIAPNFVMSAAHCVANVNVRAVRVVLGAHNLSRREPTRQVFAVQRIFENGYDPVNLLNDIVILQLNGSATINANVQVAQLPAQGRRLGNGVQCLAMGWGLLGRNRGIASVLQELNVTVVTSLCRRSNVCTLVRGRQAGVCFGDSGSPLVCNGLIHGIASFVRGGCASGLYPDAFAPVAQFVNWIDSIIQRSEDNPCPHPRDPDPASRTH
# T2: Trypsin (Bos taurus, UniProt P00760)
# T2 construct: gene PRSS1
# T2 sequence (P00760 24-246): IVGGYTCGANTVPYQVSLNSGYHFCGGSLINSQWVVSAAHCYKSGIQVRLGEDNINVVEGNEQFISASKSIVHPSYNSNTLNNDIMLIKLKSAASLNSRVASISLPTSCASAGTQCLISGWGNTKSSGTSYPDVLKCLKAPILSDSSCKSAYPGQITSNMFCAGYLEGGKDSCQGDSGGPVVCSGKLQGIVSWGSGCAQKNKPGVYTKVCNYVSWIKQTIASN
# T3: DFP-treated human neutrophil elastase (Homo sapiens, UniProt P08246)
# T3 sequence (P08246 30-247 limits assumed): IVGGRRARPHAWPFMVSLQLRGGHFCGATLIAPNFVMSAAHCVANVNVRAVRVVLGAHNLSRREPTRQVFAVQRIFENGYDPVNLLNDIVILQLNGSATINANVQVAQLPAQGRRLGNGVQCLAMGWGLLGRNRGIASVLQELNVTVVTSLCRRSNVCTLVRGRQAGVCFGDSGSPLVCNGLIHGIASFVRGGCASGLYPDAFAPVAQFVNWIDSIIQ
# T4: DFP-treated human neutrophil cathepsin G (Homo sapiens, UniProt P08311)
# T4 sequence (P08311 21-243 limits assumed): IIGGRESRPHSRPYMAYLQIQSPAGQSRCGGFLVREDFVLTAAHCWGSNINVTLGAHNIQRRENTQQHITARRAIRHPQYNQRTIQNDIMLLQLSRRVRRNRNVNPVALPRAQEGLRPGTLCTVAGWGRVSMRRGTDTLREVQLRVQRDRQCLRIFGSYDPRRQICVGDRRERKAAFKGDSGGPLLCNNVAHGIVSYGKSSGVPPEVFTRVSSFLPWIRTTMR
# Legend:
# [1] = molecular target: T1, HNE (human neutrophil elastase); test: Serine protease assay with p-nitroanilide substrate, HNE; assay type: biochemical
# Description: (§1) Serine protease assays were performed using p-nitroanalide amide substrates. Trypsin activity was assayed by using Benzyl-PHE-VAL-ARG-PNA (0.5 mg/ml). Chymotrypsin activity was assayed by using SUC-(ALA)2 -PRO-PHE-PNA (SEQ ID NO:5) (10 mg/ml in DMSO). Elastase activity was assayed by using SUC-(ALA)3 -PNA (10 mg/ml in DMSO). The dilution of each of these enzymes required to produce a change in absorbance of approximately 0.4 after a 15 min incubation at 37° C. was initially determined. The complete reaction mixture contained 10 μls of this enzyme dilution plus 100 μls of the appropriate above substrate and 0-50 uls of the indicated concentration of inhibitor or TBS to maintain constant volume. Trypsin, chymotrypsin, and HNE assays were incubated at 37° C. for 15 min, while pancreatic elastase assays were incubated at 37° C. for 1.5 min. The reaction was terminated by the addition of a sufficient quantity of ice cold TBS to bring each assay up to a final volume of 1 ml. The absorbance of the p-nitroaniline produced was measured against a distilled water blank at 410 nm on a Hitachi model 100-40 spectrophotometer. Percent inhibition was calculated as: 100-[(A1 E+I/A1 E)×100].
# Trypsin = molecular target: T2, Trypsin; test: Serine protease assay with p-nitroanilide substrate, trypsin; assay type: biochemical; settings: FIG. 2, preliminary enzyme kinetic experiments, desalted SPAAT preparations
# Description: as §1
# Chymotrypsin [2] = molecular target: Chymotrypsin (Bos taurus, UniProt P00766); test: Serine protease assay with p-nitroanilide substrate, chymotrypsin; assay type: biochemical
# Description: as §1
# Pancreatic elastase = Pancreatic elastase (Homo sapiens, UniProt Q9UNI1); test: Serine protease assay with p-nitroanilide substrate, pancreatic elastase; assay type: biochemical; settings: FIG. 2, preliminary enzyme kinetic experiments, desalted SPAAT preparations
# Description: as §1
# [3] = molecular target: T3, DFP-treated human neutrophil elastase; test: ELISA binding to DFP-treated HNE; settings: FIG. 3A, 10 μg/ml, corrected for non-specific binding to BSA
# Description: (§2) Plastic microtiter wells were coated overnight at 4° C. with 100 μls of antigens appropriately diluted in PBS. Plates were washed 3× with approximately 300 μls PBS/well. Any remaining reactive sites were blocked by adding 200 μls 1% BSA in PBS/well and incubating for 1 hr at 37° C. The plates were again washed 3× with approximately 300 μls PBS/well. The rabbit anti-human AAT and HSA polyclonal antibodies were diluted 1/40,000 with PBS containing 0.05% Tween-20. 50 μls of this diluted primary antibody was added/appropriate well. The plate was again incubated for 1 hr at 37° C., then washed 3× with approximately 300 μls PBS/well. 50 μls of an appropriately diluted secondary antibody (goat anti-rabbit IgG diluted 1/16,000) was added/well. The plates were again incubated for 1 hr at 37° C., then washed 5× with approximately 300 μls PBS/well. 50 μls of color developing ortho-phenylenediamine (OPD) solution was added/well. The plates were incubated for 30 min at 37° C. The reaction was finally stopped by the addition of 50 μls/well of 4.5M sulfuric acid and read at 492 nm.
# (§3) An ELISA was also developed to quantitate the potential binding affinity of various antigens for AAT (SEQ ID NO:1) and/or SPAAT (SEQ ID NO:4). […]
# [4] = molecular target: T4, DFP-treated human neutrophil cathepsin G; test: ELISA binding to DFP-treated cathepsin G; settings: FIG. 3B, 10 μg/ml, corrected for non-specific binding to BSA
# Description: as §2, §3
# Chymotrypsin [5] = test: enzyme inhibition kinetics with chymotrypsin, p-nitroanilide substrate
# [6] = molecular target: human neutrophil elastase (active enzyme) (human) (UniProt P08246)
# [7] = FIG. 2, preliminary enzyme kinetic experiments, desalted SPAAT preparations
# Pancreatic elastase, sequence (Q9UNI1 19-258): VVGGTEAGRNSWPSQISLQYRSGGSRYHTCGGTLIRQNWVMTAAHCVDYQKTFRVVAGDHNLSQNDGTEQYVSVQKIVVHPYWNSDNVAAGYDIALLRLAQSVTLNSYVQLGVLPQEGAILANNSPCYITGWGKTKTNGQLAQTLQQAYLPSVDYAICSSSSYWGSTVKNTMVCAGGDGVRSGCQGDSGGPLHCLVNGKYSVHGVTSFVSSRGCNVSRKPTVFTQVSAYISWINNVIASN
molecule,measurement,setting,value
MFLEAIPMSIPPQVKFNKPFVFLMIEQNTKSPLFMGKVVNPTQK [chemically synthesized SPAAT],"effectiveness as inhibitor of HNE relative to SPAAT isolated from placenta, mole-for-mole",[1]; ratio of the KI values,eight-fold less effective
SPAAT: 44-residue C-terminal fragment of α1 antitrypsin (MET-351 to LYS-394); desalted preparations isolated from human placenta (MFLEAIPMSIPPQVKFNKPFVFLMIEQNTKSPLFMGKVVNPTQK),effect on trypsin,Trypsin,no effect
same,inhibition of chymotrypsin (rank order of inhibition),Chymotrypsin [2]; [7],chymotrypsin>HNE>pancreatic elastase
same,"KI relative to Km, competitive inhibitor of chymotrypsin",Chymotrypsin [2]; preliminary calculations from inhibitor concentrations required to totally inhibit chymotrypsin,~ 1/10
same,inhibition of pancreatic elastase (rank order of inhibition),Pancreatic elastase,chymotrypsin>HNE>pancreatic elastase
same,inhibition of HNE activity (compared with native AAT),[1]; [7],almost as well as native AAT
same,binding to DFP-treated HNE,[3],bound
same,binding to DFP-treated cathepsin G,[4],bound
"placental SPAAT: SPAAT isolated from human placenta, associated with collagen in the placental material (MFLEAIPMSIPPQVKFNKPFVFLMIEQNTKSPLFMGKVVNPTQK)",Ki,Chymotrypsin [2]; chymotrypsin as the subject enzyme,920 nM
α1 Antitrypsin (AMFLEAIPMSIPPEVKFNKPFVFLMIEQNTKSPLFMGKVVNPTQK) [AAT],binding to DFP-treated HNE,[3],bound
same,binding to DFP-treated cathepsin G,[4],bound
MFLEAIPMSIPPQVKFNKPFVFLMIEQNTKSPLFMGKVVNPTQK [chemically synthesized SPAAT],Ki,Chymotrypsin [5],7500 nM
same,"inhibitory effectiveness, mole-for-mole",[6],8 fold
MFLEAIPMSIPPQVKFNKPFVFLMIEQNTKSPLFMGKVVNPTQK [SPAAT isolated from human placenta (44-residue C-terminal fragment of alpha1 antitrypsin)],Ki,Chymotrypsin [5],920 nM
